The record followed here is patent publication US20210317201A1.

Several values for one entry are separate records, joined by “and”; a condition that tells them apart may be missing. Identical values can stand only once.

The target in experiment [1] is natural human IL-23 from activated THP-1 cells (human) (UniProt P29460). Nature of the experiment: cell-based or functional assay.
The target of experiment [2] is recombinant human IL-23 (human) (UniProt P29460). Nature of the experiment: cell-based or functional assay.
Sequence of recombinant human IL-23 (human) (chain, as listed by the source limits assumed, chain 1 of 2): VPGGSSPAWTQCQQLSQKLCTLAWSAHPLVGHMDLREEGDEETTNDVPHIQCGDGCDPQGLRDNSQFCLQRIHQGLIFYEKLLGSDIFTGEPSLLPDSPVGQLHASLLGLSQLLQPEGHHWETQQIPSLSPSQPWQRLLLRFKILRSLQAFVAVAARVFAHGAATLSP
Sequence of recombinant human IL-23 (human) (P29460 23-328 limits assumed, chain 2 of 2): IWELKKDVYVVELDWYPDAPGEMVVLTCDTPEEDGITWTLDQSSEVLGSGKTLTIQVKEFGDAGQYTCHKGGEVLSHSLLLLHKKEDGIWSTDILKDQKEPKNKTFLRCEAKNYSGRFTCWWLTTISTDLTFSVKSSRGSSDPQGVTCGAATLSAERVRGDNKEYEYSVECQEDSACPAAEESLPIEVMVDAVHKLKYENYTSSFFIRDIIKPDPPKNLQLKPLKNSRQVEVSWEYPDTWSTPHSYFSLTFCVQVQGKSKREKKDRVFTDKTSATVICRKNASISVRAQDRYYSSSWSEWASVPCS
The target of experiment [3] is Human IL-23 with linker (human) (UniProt P29460). Nature of the experiment: SPR, ProteOn XPR36, global 1:1 fit. (In general: SPR reads the build-up and loss of mass on a sensor chip optically.)
Experiment [4] deals with cynomologous IL-23 (cynomolgus monkey). Nature of the experiment: SPR, ProteOn XPR36, global 1:1 fit.
Experiment [5] addresses Human IL-23 no linker (human) (UniProt P29460). Nature of the experiment: SPR, ProteOn XPR36, global 1:1 fit.

Sequence of Human IL-23 no linker (human) (chain, as listed by the source limits assumed, chain 1 of 2): as the sequence (chain, as listed by the source limits assumed, chain 1 of 2) above
Sequence of Human IL-23 no linker (human) (P29460 23-328 limits assumed, chain 2 of 2): as the sequence (P29460 23-328 limits assumed, chain 2 of 2) above
Sequence of natural human IL-23 from activated THP-1 cells (human) (chain, as listed by the source limits assumed, chain 1 of 2): as the sequence (chain, as listed by the source limits assumed, chain 1 of 2) above
Sequence of natural human IL-23 from activated THP-1 cells (human) (P29460 23-328 limits assumed, chain 2 of 2): as the sequence (P29460 23-328 limits assumed, chain 2 of 2) above

B1: antibody C1273 (disclosed in WO 2007/005955) (antibody, from another filing, V domains shown)
VH: DVNLVESGGGLVKPGGSLKLSCAASGFTFSSYTMSWVRQTPEKRLEWVATISSGGTYTYYPDSVKGRFTISRDNAKNTLYLQMSSLKSEDTAMFYCTRDNHAYDRGPFFDYWGQGATLTVSS
VL: DIVMSQSPSSLVVSVGEKVTMSCKSSQNLFYRSNQKNHLAWYQQKPGQSPTLLIYWTSTRESGVPDRFTGSGSGTDFTLTISRVKAEDLAVYYCQQYYSYPPTFGGGTKLEIK
Take B1: the IC50, IL-23 stimulated IL-17 production from mouse splenocytes in experiment [1] is 93 pM and 44 pM. In addition, the IC50, IL-23 induced STAT3 phosphorylation in human DB cells (phospho-STAT3 ELISA) in experiment [2] was 163 pM and 438 pM.

B2: Antibody B (antibody, human IgG1, kappa, L234A L235A, V domains shown)
VH: QVQLVQSGAEVKKPGSSVKVSCKASGFTFTDQTIHWVRQAPGQGLEWMGYIYPRDDSPKYNENFKGKVTLTADKSTSTAYMELSSLRSEDTAVYYCAIPDRSGYAWFIYWGQGTLVTVSS
VL: DIQMTQSPSSLSASVGDRVTITCKASRDVAIAVAWYQQKPGKVPKLLIYWASTRHTGVPSRFSGSGSRTDFTLTISSLQPEDVADYFCHQYSSYPFTFGSGTKLEIKR
Broadly, the Kd is a measure of binding affinity in units of concentration. Low readings indicate higher affinity, high ones lower affinity. Usually koff stands for the first-order rate constant of dissociation. Usually kon stands for the rate constant with which the complex forms. In experiment [3], B2 showed a Kd of less than 0.001 nM, a koff of less than 1e-06 s⁻¹ and a kon of 356000 M⁻¹ s⁻¹.

B3: Antibody D (antibody, human IgG1, kappa, L234A L235A, V domains shown)
VH: QVQLVQSGAEVKKPGSSVKVSCKASGFTFTDQTIHWVRQAPGQGLEWMGYIYPRDDSPKYNENFKGKVTLTADKSTSTAYMELSSLRSEDTAVYYCAIPDRSGYAWFIYWGQGTLVTVSS
VL: DIQMTQSPSSLSASVGDRVTITCKASRDVAIAVAWYQQKPGKVPKLLLFWASTRHTGVPDRFSGSGSGTDFTLTISSLQPEDLADYYCHQYSSYPFTFGQGTKLEIKR
Regarding B3, in experiment [3], the dissociation constant Kd was 0.107 nM, the koff was found to be 4.07e-05 s⁻¹ and the kon came out at 382000 M⁻¹ s⁻¹.

B4: Antibody 6H12 (disclosed in WO 2007/027714) (antibody, from another filing, V domains shown)
VH: EVHLQQSGPELVKPGASVKMSCKASGYTFNRYLIHWVKQKPGQGLEWIGYINPNNDGTNYNEKFKGKATLTSDKSSSTAYMELSSLTSEDSAVYYCAANWDQAYWGQGTLVTVSA
VL: DIVMTQSPATLSVTPGDRVSLSCRASQSISDYLHWYQQKSHESPRLLIKYTSQSISGIPSRFSGSGSGSDFTLSINSVEPEDVGVYYCQNGHSFPFTFGSGTKLEIKR
For B4, in experiment [4], the Kd stood at 0.157 nM, the koff stood at 0.000156 s⁻¹ and the kon was found to be 991000 M⁻¹ s⁻¹. In experiment [5], this molecule gave a dissociation constant Kd of 0.214 nM, a koff of 0.000107 s⁻¹ and a kon of 499000 M⁻¹ s⁻¹. In addition, in experiment [2], the IC50, IL-23 stimulated IL-17 production from mouse splenocytes was 1600 pM and 806 pM and 1300 pM.
